Molecular target: holo-hemoglobin (UniProt P01966)
Test: SPR

Sequence of UniProt P01966 (P01966 whole entry, chain 1 of 2): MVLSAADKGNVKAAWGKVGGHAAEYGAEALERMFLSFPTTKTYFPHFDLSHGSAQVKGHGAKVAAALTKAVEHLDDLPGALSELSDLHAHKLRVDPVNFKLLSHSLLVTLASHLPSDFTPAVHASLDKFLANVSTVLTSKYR
Sequence of UniProt P01966 (P02070 whole entry, chain 2 of 2, further chain): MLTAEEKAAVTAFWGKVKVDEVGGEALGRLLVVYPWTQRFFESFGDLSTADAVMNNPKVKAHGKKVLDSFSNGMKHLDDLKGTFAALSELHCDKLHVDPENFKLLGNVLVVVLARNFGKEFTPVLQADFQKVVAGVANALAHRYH

Substance: IsdX1 (amino acids 26-146), wild-type, apo form (domain or fragment)
- Kd: 15 nM

— PMC3297588
